Columns and labels:
[1] = biological target: cell surface IFNAR1/IFNAR2 heterodimer (RAW-Lucia ISG cells) (Mus musculus (Mouse)) (UniProt P33896)
human R2-SUB (human) = human R2-SUB (human) (UniProt P01563)
IFNa4-Fc = IFNa4-Fc (human); test: cell-based or functional assay

R1-IFNa4-Fc (from UniProt P07351) (Fc fusion)
IFN activity, luciferase reporter assay in RAW-Lucia ISG cells [1]: < 125 fold

R2-IFNa4-Fc (from UniProt P07351) (Fc fusion)
IFN activity, luciferase reporter assay in RAW-Lucia ISG cells [1]: > 125 fold

rmMMP-9 (from UniProt P41245) (enzyme)
cleavage by rmMMP-9 at 37 C for 0, 0.5, 2 or 6 hours, digests separated on a stain-free gel (human R2-SUB (human)): 100%

B1: Mouse IFNAR1-ECD (receptor)
chain: ENLKPPENIDVYIIDDNYTLKWSSHGESMGSVTFSAEYRTKDEAKWLKVPECQHTTTTKCEFSLLDTNVYIKTQFRVRAEEGNSTSSWNEVDPFIPFYTAHMSPPEVRLEAEDKAILVHISPPGQDGNMWALEKPSFSYTIRIWQKSSSDKKTINSTYYVEKIPELLPETTYCLEVKAIHPSLKKHSNYSTVQCISTTVANKMPVPGNLQVDAQGKSYVLKWDYIASADVLFRAQWLPGYSKSSSGSRSDKWKPIPTCANVQTTHCVFSQDTVYTGTFFLHVQASEGNHTSFWSEEKFIDSQKHILPPPPVITVTAMSDTLLVYVNCQDSTCDGLNYEIIFWENTSNTKISMEKDGPEFTLKNLQPLTVYCVQARVLFRALLNKTSNFSEKLCEKTRPGSFST
IFN activity, luciferase reporter assay in RAW-Lucia ISG cells (IFNa4-Fc): ≥ 125 fold

B2: Mouse IFNAR2-ECD (receptor)
chain: SLETITPSAFDGYPDEPCTINITIRNSRLILSWELENKSGPPANYTLWYTVMSKDENLTKVKNCSDTTKSSCDVTDKWLEGMESYVVAIVIVHRGDLTVCRCSDYIVPANAPLEPPEFEIVGFTDHINVTMEFPPVTSKIIQEKMKTTPFVIKEQIGDSVRKKHEPKVNNVTGNFTFVLRDLLPKTNYCVSLYFDDDPAIKSPLKCIVLQPGQESGLSESA
IFN activity, luciferase reporter assay in RAW-Lucia ISG cells (IFNa4-Fc): ≥ 125 fold
